“And” between values parts separate entries of the source, which are not always exact repeats. Equal entries are not always repeated.

Assay [1] addresses T1, recombinant human Tie1-Fc (Tie1 extracellular domain fused to human Fc) (human, UniProt P35590 25-759).
T1 construct: also called Tie-1 Fc Human; not shown: human Fc
T1 sequence: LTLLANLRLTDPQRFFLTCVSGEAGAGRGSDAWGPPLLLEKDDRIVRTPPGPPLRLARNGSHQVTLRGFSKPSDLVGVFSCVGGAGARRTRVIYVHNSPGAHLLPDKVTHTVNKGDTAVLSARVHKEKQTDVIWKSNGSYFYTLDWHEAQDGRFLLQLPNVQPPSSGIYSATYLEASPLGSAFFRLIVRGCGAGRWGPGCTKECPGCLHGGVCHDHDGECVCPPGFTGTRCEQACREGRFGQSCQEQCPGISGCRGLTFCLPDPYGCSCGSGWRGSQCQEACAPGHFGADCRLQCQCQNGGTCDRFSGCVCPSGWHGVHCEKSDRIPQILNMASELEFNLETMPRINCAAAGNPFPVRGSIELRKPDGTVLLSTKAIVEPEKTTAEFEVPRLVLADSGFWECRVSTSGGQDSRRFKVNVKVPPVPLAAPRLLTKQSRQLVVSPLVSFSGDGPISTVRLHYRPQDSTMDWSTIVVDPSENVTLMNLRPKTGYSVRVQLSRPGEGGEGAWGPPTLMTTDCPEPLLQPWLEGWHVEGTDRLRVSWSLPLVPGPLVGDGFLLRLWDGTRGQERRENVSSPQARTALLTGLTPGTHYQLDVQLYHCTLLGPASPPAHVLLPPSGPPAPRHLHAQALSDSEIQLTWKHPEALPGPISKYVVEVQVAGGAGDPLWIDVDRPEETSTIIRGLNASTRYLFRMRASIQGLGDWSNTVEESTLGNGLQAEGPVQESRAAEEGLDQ
The experiment in a line: BIAcore, human Tie-1 Fc over IgG coupled to CM5 chip, 1:1 fit. On the procedure: The IgG were directly coated onto a CM5 chip. […] All flow cells were subsequently deactivated with a 7 minute pulse of 1M ethanolamine hydrochloride pH 8.5. All analysis was performed in HBS buffer. Purified recombinant human Tie-1 Fc was diluted 1/28.7 in HBS to obtain a 400 nM stock solution. Serial dilutions were made to obtain 200 nM, 100 nM, 50 nM and 25 nM Tie-1 Fc stocks. For analysis of the association phase samples were injected at 30 μl/min for 8.3 minutes using kinject program. This was followed by a 40 minutes dissociation phase. Any antigen remaining associated to the surface was stripped from the IgG surface at a flow of 50μl/min with two injections of 10 mM glycine pH 1.5 for 30 secods. All samples were run and analyzed in duplicate
(§1) Sensorgrams were analyzed using the simultaneous ka/kd fitting program with 1:1 model in the BIAEVALUATION™ software 3.1.
(SPR reads the build-up and loss of mass on a sensor chip optically.)

Assay [2] has as its target T2, recombinant mouse Tie1-Fc (mouse, UniProt Q06806 23-755, limits assumed).
T2 construct: also called Tie-1 Fc Mouse; not shown: Fc
T2 sequence (looked up): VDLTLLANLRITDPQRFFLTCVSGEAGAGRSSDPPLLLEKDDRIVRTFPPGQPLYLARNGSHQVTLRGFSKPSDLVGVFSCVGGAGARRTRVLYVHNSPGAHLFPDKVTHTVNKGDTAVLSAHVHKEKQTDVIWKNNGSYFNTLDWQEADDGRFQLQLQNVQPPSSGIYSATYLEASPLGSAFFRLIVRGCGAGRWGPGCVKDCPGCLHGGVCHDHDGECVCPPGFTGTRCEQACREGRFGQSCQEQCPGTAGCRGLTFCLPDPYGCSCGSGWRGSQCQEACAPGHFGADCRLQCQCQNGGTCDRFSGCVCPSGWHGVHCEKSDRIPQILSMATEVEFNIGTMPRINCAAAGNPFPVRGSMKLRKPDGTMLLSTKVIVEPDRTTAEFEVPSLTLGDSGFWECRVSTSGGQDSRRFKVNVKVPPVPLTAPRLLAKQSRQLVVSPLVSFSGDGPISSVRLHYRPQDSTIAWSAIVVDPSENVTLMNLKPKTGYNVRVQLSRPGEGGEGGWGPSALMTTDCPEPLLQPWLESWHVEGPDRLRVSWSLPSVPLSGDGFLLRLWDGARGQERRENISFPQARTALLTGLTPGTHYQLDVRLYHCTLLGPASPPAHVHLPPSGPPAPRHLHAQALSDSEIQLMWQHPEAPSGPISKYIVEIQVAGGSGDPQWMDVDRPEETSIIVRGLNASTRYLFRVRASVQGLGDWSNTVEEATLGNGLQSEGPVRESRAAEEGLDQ
Nature of the assay: BIAcore, mouse Tie-1 Fc over IgG coupled to CM5 chip, 1:1 fit. On the procedure:
This was then used to transiently transfect HEK293T cells using established procedures. The IgG was purified from the culture supernatant using protein A column chromatography using established procedures and the subsequent IgG was then tested for binding activity using surface plasmon resonance (BIAcore). […] The IgG were directly coated via onto a CM5 chip. […] All flow cells were subsequently deactivated with a 7 minute pulse of 1M ethanolamine hydrochloride pH8.5. All analysis was performed in HBS buffer. Purified recombinant mouse Tie-1 Fc was diluted 1/6.5 in HBS to obtain a 400 nM stock solution. Serial dilutions were made to obtain 200 nM, 100 nM, 50 nM and 25 nM Tie-1 Fc stocks. For analysis of the association phase samples were injected at 30 μl/min for 8.3 minutes using kinject program. This was followed by a 40 minutes dissociation phase. Any antigen remaining associated to the surface was stripped from the IgG surface at a flow of 50μl/min with two injections of 10 mM glycine pH1.5 for 30 seconds. All samples were run and analyzed in duplicate
as §1

Assay [3] deals with T3, endogenous human Tie1 of primary human endothelial cells (HDMEC/HDMVEC, HUVEC) and human tissues (human, UniProt P35590 25-1138). The experiment in a line: cell-based or functional assay.
Assay [4] has as its target T4, human Tie1, full length, V5-tagged (pcDNA3-Tie1-V5), in transiently transfected COS1 cells (human, UniProt P35590 25-1138).
T4 construct: it is not expressly tied to the pcDNA3-Tie1-V5 construct; also called Tie1-transfected; transfected Tie1
Nature of the assay: Western blot, Tie1-V5-transfected COS1. On the procedure: COS1 cells were transfected with pcDNA3-Tie1-V5 (1 μg DNA per 10 cm cell culture plate) using FUGENE 6 (Roche) according to manufacturer's instruction and incubated for 48 h before stimulation. For immunoprecipitation, Tie1 transfected cells and HMVEC cells were lysed in DOC-RIPA lysis buffer (50 mM Tris-HCl pH 8.0, 150 mM NaCl, 1% Triton-X-100, 0.1% SDS, 1% DOC, 10 mM EDTA) supplemented with aprotinin, leupeptin, PMSF and sodium vanadate. Immunoprecipitation was carried out from equal amount of cell lysates by incubating with polyclonal anti-human Tie1 antibodies (R&D), monoclonal anti-V5 antibodies (Invitrogen) or altogether 23 anti-Tie1 antibodies (1μg/ml) for 1 to 2 h followed by incubation with protein G-Sepharose (Amersham Pharmacia Biotech AB) for 1 h. The immunoprecipitates were washed twice with PBS-T and twice with PBS, followed by elution with the Laemmli buffer and separation in 8% SDS-PAGE. The blots were probed with the 23 anti-Tie1 antibodies (5 μg/ml) and subsequently anti-human Fc antibodies conjugated with HRP.
Next, to find out if the anti-Tie1 antibodies recognize Tie1 in living cells, those cells were studied by immunofluorescence staining.
On the technique in general: In western blotting, separated proteins are transferred to a membrane and probed.

In assay [5] the target is T3, endogenous human Tie1 of primary human …. The experiment in a line: immunofluorescence, HDMEC.

B1: E3 IgG (parental anti-Tie1 antibody E3, human IgG1) (antibody, V domains shown)
VH: EVQLLESGGGLVQPGGSLRLSCAASGFTFSMYGMVWVRQAPGKGLEWVSVISPSGGNTGYADSVKGRFTISRDNSKNTLYLQVNSLRAEDTAVYYCARAPRGYSYGYYYWGQGTLVTVSS
VL: DIQMTQSPLSLSASVGDRVTITCRASQGIGHYLAWYQQKPGKVPKLLIYTASTLQSGVPSRFSGSGSGTDFTLTINSLQPEDVATYYCQQFNSYPHTFGQGTRLDIK
notes: also called E3 IgG1; parental E3
With B1, in assay [1], the Kd was 5.83 nM, the koff was 3.61e-05 s⁻¹ and the kon was found to be 6190 M⁻¹ s⁻¹. In assay [2], the Kd was found to be 14.9 nM, the koff is 9.2e-05 s⁻¹ and the kon worked out at 6170 M⁻¹ s⁻¹. Also, the “IC50 of tube formation by HUVECs” value in assay [3] was 10 ng/ml and 66 pM.

B2: germlined E3 IgG (light chain framework regions germlined to DPK4; heavy chain as parental) (antibody, V domains shown)
VH: EVQLLESGGGLVQPGGSLRLSCAASGFTFSMYGMVWVRQAPGKGLEWVSVISPSGGNTGYADSVKGRFTISRDNSKNTLYLQVNSLRAEDTAVYYCARAPRGYSYGYYYWGQGTLVTVSS
VL: DIQMTQSPSSLSASVGDRVTITCRASQGIGHYLAWYQQKPGKVPKLLIYTASTLQSGVPSRFSGSGSGTDFTLTISSLQPEDVATYYCQQFNSYPHTFGQGTRLEIK
notes: also called germlined E3 IgG1; germlined anti Tie1 E3-IgG
As for B2, in assay [1], the Kd is 5.17 nM, the off-rate constant (koff) was determined as 3.67e-05 s⁻¹ and the kon came to 7090 M⁻¹ s⁻¹. Moreover, in assay [2], the Kd was found to be 15 nM, the koff is 8.99e-05 s⁻¹ and the kon worked out at 6000 M⁻¹ s⁻¹. The “IC50 of tube formation by HUVECs” value in assay [3] was 10 ng/ml and 66 pM.

B3: P-B3 IgG (anti-Tie1 isolate p-B3, human IgG1) (antibody, V domains shown)
VH: EVQLLESGGGLVQPGGSLRLSCAASGFTFSRYGMHWVRQAPGKGLEWVSVISPSGGMTYYADSVKGRFTISRDNTKNTLYLQMNSLRAEDTAVYYCARVGATGPFDIWGQGTMVTVSS
VL: DIQMTQSPATLSLSPGERATLSCRASQSVSTYLAWYQQKPGQAPRLLIYDASNRATGIPGRFSGSGSGTDFTLTISSLEAEDFAVYYCQQRSSWPITFGQG
notes: the VL entry stops within FR4
Regarding B3, the binding result in assay [4] and in assay [5] was “binds” each time.

What is called Kd is the free concentration of one partner at which half of the binding sites on the other are occupied at equilibrium, for simple one-to-one binding. Usually koff stands for the rate constant with which the complex falls apart. As usually defined, the kon is the rate constant with which the complex forms.

These data come from patent publication US20060024297A1 (published 2006).
